Test results published in patent US10562935B2, “Stapled peptides and uses thereof” (London Health Sciences Centre Research Inc., priority 2015, dated 2020).
Bridges are numbered along the chain shown (N, C = ends).

What was measured:
[1] = Circular dichroism (CD) spectroscopy of HABD2 peptides in Milli-Q water (Example 1); type: physicochemical; details: for [θ]222/[θ]208 ratio of ellipticities / fH fraction helicity / Molar ellipticity [θ]192 / Molar ellipticity [θ]208 / Molar ellipticity [θ]222: 0.5 mM in Milli-Q water; for fH fraction helicity: equations 1-3; for α-helical character by CD (in words): Milli-Q water; for Molar ellipticity [θ]192: λ = 192 nm; for Molar ellipticity [θ]208: λ = 208 nm; for Molar ellipticity [θ]222: λ = 222 nm
From the text: In addition, a large mean residue ellipticity indicates greater α-helical character. […] This was predicted to be the case, as there is a lack of contributing residues that might form a hydrophobic core, thereby helping to stabilize the secondary structure of the linear peptide. For this reason, bridges were introduced into the peptides. […] The differences in α-helicity induced by the bridges placed at different points within each peptide may be due to the differences in their primary sequences. Specifically, two amino acids (at the i and i+4 position) have to be replaced in order to form the lactam bridge. In compound 133, leucine was replaced at both the i and i+4 position; while in compound 136, glutamine was replaced at the i position and aspartic acid was replaced at i+4. Leucine and glutamine are proposed to be helix-stabilizing residues.
A larger portion of the RHAMM protein was used as the reference for α-helical character of the truncated peptides. 7 kDa RHAMM (SEQ ID NO: 1) is a mini protein that is composed of 62 amino acids, which was derived from the C-terminus of the full-length RHAMM sequence. It contains both HABDs, and is predicted to have almost complete α-helix shape, similar to that of native full-length RHAMM.
A peptide's α-helicity can be quantified using equations 1-3: fH=[([θ]obs222−[θ]c)/([θ]max222−[θ]c)] (Equation 1) [θ]c=2220+53T (Equation 2) [θ]max222=(−44000+250T)(1−k/N) (Equation 3) where fH is the ratio of the average number of helical hydrogen bonds divided by the total number of hydrogen bonds that can be found in a peptide, T is the temperature in degrees Celsius, N is the number of residues in the peptide and k is a constant of ellipticity when 100% of the structure is α-helical (3 for carboxyamidated peptides).
Milli-Q water was chosen as the solvent in which all peptides would be dissolved for CD spectroscopy, as it is a UV invisible solvent, which is a requirement of the analytical technique, and it represents RHAMM's natural environment in the body. Luo and Baldwin [18] stated that when peptides are taken out of their native protein sequence, they usually show little to no helical formation in water alone. For this reason, TFE/H2O solutions are commonly used in studies to observe the α-helix characteristics, and may improve the helical nature of the peptides observed here. However, a helix-stabilizing solvent, such as TFE, would not be as contextually relevant, as there are no solvent stabilizing effects in the body. Thus use of TFE would tend to produce skewed results and not be representative of the peptide's natural behavior.

[2] = tested on: RHAMM-overexpressing (LR21) cells; test: Cell migration assay (Boyden chamber, Chemicon ECM510); type: cell-based; details: 10 ng/mL peptide; 20 hours; compared to 30% serum control
Description: Compounds 132, 133, 150-152, 156-161, 265-269, 275, 277, and 278 were evaluated for their ability to inhibit cell migration. Cell migration assays were performed using Chemicon Assay Kits (ECM510 (Migration); Billerica, Mass., USA) according to the manufacturer's protocol. Briefly, sub-confluent cultures of RHAMM-overexpressing (LR21) cells were serum starved overnight. 7.5×10^4 cells were then plated in the upper chamber of a Boyden chamber. either in the presence or absence of 10 ng/mL of peptide. 30% fetal bovine serum in DMEM was used as the chemo-attractant in the lower chamber. The number of cells that had crossed the membrane after 20 hours was assessed using the CYQUANT GR Dye and lysis buffer solution provided in the kit. Fluorescence was measured with a fluorescent plate reader using a 480/520 nm filter set.
Values are the mean and SDM of n=3 replicates. *p<0.05, **p<0.01. All statistics compare to 30% serum control. In FIGS. 41-43, where bars are labeled with two compound numbers (“133/150” and “135/152”) this means that the data were pooled for the indicated compounds, i.e., for the non-acetylated and acetylated versions of the indicated peptides.

[3] = tested on: RHAMM-overexpressing (LR21) cells; test: Cell invasion assay (Boyden chamber with MATRIGEL, Chemicon ECM555); type: cell-based; details: 10 ng/mL peptide; 20 hours; compared to 30% serum control
Description: Compounds 132, 133, 135, 150-153, 156, 265-269, and 275-278 were evaluated for their ability to inhibit cellular invasion. Invasion assays were performed using Chemicon Assay Kits ECM555 (Invasion); Billerica, Mass., USA) according to the manufacturer's protocol. Invasion assays are performed in an identical manner as the migration assays described above in Example 5, except that cells are required to invade through a layer of extracellular matrix (MATRIGEL) coating the filter that separates the upper and lower Boyden chambers. Briefly, sub-confluent cultures of RHAMM-overexpressing (LR21) cells were serum starved overnight before plating 7.5×10^4 cells in the upper chamber of a Boyden chamber either in the presence or absence of 10 ng/mL of peptide. 30% fetal bovine serum in DMEM was used as the chemo-attractant in the lower chamber. The number of cells that had crossed the membrane after 20 hours was assessed using the CYQUANT® GR Dye and lysis buffer solution provided in the kit. Fluorescence was measured with a fluorescent plate reader using 480/520 nm filter set.
Values the mean and SDM of n=3 replicates. *p<0.05, **p<0.01, ***p<0.001 All statistics compared to 30% serum control. In FIG. 49, where bars are labeled with two compound numbers (“152/135”) this means that the data were pooled for the indicated compound, i.e., for the non-acetylated and acetylated versions of the indicated peptide.

NF-κB = test: Inflammation assay: NF-κB inducible SEAP reporter in RAW-Blue macrophages stimulated with PAM3CSK4; type: cell-based, murine; details: 10 ng/mL peptide with 200 ng/mL PAM3CSK4; 18 hours; compared to +PAM3
Description: Compounds 132, 133, 135, 150, 152, 157-161, 265-269, 275, 277, and 278 were evaluated for their ability to inhibit inflammation. To determine the effect of the peptides on inflammation, commercially available murine RAW 264.7 macrophages carrying a secreted embryonic alkaline phosphatase (SEAP) reporter that is inducible by NF-κB (RAW-Blue; InvivoGen, San Diego, Calif., USA) were used. Cells were grown to 80% confluence in DMEM containing 4.5 g/L glucose, 10% heat-inactivated fetal bovine serum, 2 mM L-glutamine, 50 μg/mL penicillin/streptomycin, 100 μg/mL Normocin (InvivoGen) at 37° C. in 5% CO2. For peptide screening experiments, cells were scraped in growth medium, counted, and plated to flat-bottom 96-well plates at a density of 5×10^4 cells/well either in the presence or absence (control) of 200 ng/mL TLR1/TLR2 agonist PAM3CSK4 (InvivoGen). Peptides were added in 6 replicate wells at a dose of 10 ng/mL in the presence of PAM3CSK4. After 18 hours of stimulation, SEAP concentrations (indicating NF-κB activity) were measured in the supernatants collected from the RAW-Blue cells using QUANTI-BLUE reagent (InvivoGen). After 20 minutes of incubation at 37° C., SEAP levels were determined using spectrophotometry at a wavelength of 630 nm.
Values are the mean and SDM of n=3 replicates. *p<0.05 and ***p<0.001 compared to +PAM3. In FIGS. 44 and 45, where bars are labeled with two compound numbers (“133/150” and “135/152”) this means that the data were pooled for the indicated compounds, i.e., for the non-acetylated and acetylated versions of the indicated peptides.

Substance	[θ]222/[θ]208 ratio of ellipticities [1]	fH fraction helicity [1]	α-helical character by CD (in words) [1]	Molar ellipticity [θ]192 [1]	Molar ellipticity [θ]208 [1]	Molar ellipticity [θ]222 [1]	inhibition of cell migration (in words) [2]	inhibition of cellular invasion (in words) [3]	inhibition of inflammation (SEAP / NF-κB activity, in words) (NF-κB)
H-(cyclo-4,8)-VSK[ERSQK]VKRKQN-NH2 (H-VSKERSQKVKRKQN-NH2; lactam 4-8; SMILES CC(C)[C@H](N)C(=O)N[C@@H](CO)C(=O)N[C@@H](CCCCN)C(=O)N[C@H]1CCC(=O)NCCCC[C@@H](C(=O)N[C@H](C(=O)N[C@@H](CCCCN)C(=O)N[C@@H](CCCNC(=N)N)C(=O)N[C@@H](CCCCN)C(=O)N[C@@H](CCC(N)=O)C(=O)N[C@@H](CC(N)=O)C(N)=O)C(C)C)NC(=O)[C@H](CCC(N)=O)NC(=O)[C@H](CO)NC(=O)[C@H](CCCNC(=N)N)NC1=O) [Compound 133]	0.45	0.17	did not seem to stabilize	1733.35 deg cm^2 dmol^−1 residue^−1	−5010.81 deg cm^2 dmol^−1 residue^−1	−2260.92 deg cm^2 dmol^−1 residue^−1	significantly inhibit cell migration	significantly inhibited cellular invasion	
H-(cyclo-6,10)-VSKLR[EQLVK]RKQN-NH2 (H-VSKLREQLVKRKQN-NH2; lactam 6-10; SMILES CC(C)C[C@H](NC(=O)[C@H](CCCCN)NC(=O)[C@H](CO)NC(=O)[C@@H](N)C(C)C)C(=O)N[C@@H](CCCNC(=N)N)C(=O)N[C@H]1CCC(=O)NCCCC[C@@H](C(=O)N[C@@H](CCCNC(=N)N)C(=O)N[C@@H](CCCCN)C(=O)N[C@@H](CCC(N)=O)C(=O)N[C@@H](CC(N)=O)C(N)=O)NC(=O)[C@H](C(C)C)NC(=O)[C@H](CC(C)C)NC(=O)[C@H](CCC(N)=O)NC1=O) [Compound 135]	0.55	0.22	increase in α-helix structure	1245.85 deg cm^2 dmol^−1 residue^−1	−7906.16 deg cm^2 dmol^−1 residue^−1	−4400.73 deg cm^2 dmol^−1 residue^−1	significantly inhibit cell migration	significantly inhibited cellular invasion	significantly inhibited inflammation
